In general, % inhibition refers to how much of the control response was suppressed.

The target in this assay is cyno IgE c(epsilon)2-c(epsilon)3-c(epsilon)4 Fc fragment with C-terminal (His)10 tag (cynomolgus monkey). As to the kind of experiment: Alphascreen, competition with HuFc(epsilon)RI(alpha)Fc for cyno IgE Fc.
cyno IgE c(epsilon)2-c(epsilon)3-c(epsilon)4 Fc fragment with C-terminal (His)10 tag (cynomolgus monkey), sequence (chain, as listed by the source): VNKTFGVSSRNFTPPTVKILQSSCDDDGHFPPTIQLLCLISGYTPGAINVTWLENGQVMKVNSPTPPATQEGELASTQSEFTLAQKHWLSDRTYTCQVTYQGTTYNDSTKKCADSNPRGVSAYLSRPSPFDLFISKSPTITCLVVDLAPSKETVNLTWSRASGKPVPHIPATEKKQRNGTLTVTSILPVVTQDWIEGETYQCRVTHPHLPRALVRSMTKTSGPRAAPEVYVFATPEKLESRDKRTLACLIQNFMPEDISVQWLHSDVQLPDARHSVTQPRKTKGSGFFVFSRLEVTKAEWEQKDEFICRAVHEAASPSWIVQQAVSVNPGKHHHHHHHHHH

B1: Nanobody 39B2 (VHH, not shown: small tags and cut ends)
VHH: EVQLVESGGGLVQPGGSLRLSCAASGFTFGSYDMSWVRQAPGKGPEWVSAINSGGGSTYYADSVKGRFTISRDNAKNTLYLQMNSLKPEDTAVYYCSTDLGPWIEGTMEEYEYEYWGQGTQVTVSS
In turn, B1 returned a % inhibition at 250 nM Nanobody of 38%.

The record behind these values is WO2012175740A1.
